# T1: C-reactive protein (CRP) (UniProt P02741 19-224)
# T1 sequence: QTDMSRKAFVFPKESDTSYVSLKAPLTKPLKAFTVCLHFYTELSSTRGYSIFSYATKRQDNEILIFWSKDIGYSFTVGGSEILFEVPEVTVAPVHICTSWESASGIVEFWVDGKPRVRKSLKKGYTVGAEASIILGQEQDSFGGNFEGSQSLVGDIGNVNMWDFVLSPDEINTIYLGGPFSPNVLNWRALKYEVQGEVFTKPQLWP
# Key:
# [1] = molecular target: carbohydrate antigen 15-3 (CA15-3) (UniProt P15941 24-1097); experiment: electrochemiluminescence aptasensor; selectivity test; no significant ECL decrease; CRP incubation 4 °C, 1 h on BSA-blocked aptamer electrode; wash 0.01 M PBS pH 7.4; ECL read in 3 mM TPA, 0.01 M PBS pH 7.4, room temperature; settings: protein: commercial
# [2] = molecular target: carcinoembryonic antigen (CEA) (UniProt P06731 35-685); experiment: as above; settings: protein: commercial
# C-reactive protein (CRP) = molecular target: T1, C-reactive protein (CRP); experiment: electrochemiluminescence aptasensor; linear response 0.01-1000 ng/mL, LOD 8.5 pg/mL; immobilized aptamer; CRP incubation 4 °C, 1 h on BSA-blocked aptamer electrode; wash 0.01 M PBS pH 7.4; ECL read in 3 mM TPA, 0.01 M PBS pH 7.4, room temperature; settings: protein: commercial; chain copies: 5
# Chain of carbohydrate antigen 15-3 (CA15-3) (P15941 24-1097): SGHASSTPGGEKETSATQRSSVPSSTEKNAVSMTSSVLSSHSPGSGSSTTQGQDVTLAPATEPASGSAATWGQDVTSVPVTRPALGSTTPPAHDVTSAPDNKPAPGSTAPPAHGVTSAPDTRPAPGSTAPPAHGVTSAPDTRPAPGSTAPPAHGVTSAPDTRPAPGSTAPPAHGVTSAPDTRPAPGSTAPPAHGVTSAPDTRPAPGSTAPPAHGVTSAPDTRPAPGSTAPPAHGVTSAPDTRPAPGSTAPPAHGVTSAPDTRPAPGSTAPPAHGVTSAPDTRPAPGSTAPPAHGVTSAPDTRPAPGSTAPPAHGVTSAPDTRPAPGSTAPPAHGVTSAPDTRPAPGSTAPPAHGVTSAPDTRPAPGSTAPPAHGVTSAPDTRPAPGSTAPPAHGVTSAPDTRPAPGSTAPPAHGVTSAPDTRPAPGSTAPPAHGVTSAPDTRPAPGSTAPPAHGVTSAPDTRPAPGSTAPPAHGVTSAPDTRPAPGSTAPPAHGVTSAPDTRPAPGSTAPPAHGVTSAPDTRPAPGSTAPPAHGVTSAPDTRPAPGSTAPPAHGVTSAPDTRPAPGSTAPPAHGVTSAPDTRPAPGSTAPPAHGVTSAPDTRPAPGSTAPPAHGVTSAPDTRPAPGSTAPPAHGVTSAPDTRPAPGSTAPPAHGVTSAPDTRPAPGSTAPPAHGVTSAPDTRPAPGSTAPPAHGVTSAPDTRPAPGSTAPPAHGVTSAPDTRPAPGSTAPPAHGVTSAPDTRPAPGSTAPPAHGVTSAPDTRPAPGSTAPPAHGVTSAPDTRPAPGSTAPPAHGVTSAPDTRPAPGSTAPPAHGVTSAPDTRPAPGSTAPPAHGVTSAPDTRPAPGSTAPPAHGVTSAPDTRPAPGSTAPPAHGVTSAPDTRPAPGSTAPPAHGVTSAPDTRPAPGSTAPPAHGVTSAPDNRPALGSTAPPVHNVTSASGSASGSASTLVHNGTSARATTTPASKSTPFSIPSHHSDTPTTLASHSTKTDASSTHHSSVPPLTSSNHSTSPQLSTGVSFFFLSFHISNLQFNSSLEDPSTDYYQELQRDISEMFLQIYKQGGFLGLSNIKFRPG
# Chain of carcinoembryonic antigen (CEA) (P06731 35-685): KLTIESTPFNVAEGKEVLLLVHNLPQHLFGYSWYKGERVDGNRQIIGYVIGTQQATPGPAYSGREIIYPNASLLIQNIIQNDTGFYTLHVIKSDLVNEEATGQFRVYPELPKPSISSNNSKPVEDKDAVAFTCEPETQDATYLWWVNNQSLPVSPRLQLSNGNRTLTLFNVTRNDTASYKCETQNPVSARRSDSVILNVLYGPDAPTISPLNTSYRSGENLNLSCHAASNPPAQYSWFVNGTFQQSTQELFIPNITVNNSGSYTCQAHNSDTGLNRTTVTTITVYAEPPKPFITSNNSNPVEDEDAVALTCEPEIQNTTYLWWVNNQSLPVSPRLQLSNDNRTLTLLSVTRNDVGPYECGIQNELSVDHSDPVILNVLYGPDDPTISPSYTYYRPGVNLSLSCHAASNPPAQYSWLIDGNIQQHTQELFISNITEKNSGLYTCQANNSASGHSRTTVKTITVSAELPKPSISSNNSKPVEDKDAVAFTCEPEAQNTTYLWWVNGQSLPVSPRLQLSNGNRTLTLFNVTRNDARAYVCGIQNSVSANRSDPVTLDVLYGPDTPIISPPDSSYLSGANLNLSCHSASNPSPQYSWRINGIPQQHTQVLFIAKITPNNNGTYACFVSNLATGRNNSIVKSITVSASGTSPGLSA
binder,measurement,setting,value
"CGAAGGGGATTCGAGGGGTGATTGCGTGCTCCATTTGGTG (ssDNA, 5'-NH2) [CRP aptamer]",binding result,[1],no binding
same,binding result,[2],no binding
same,binding result,C-reactive protein (CRP),binds
